# Test results published in patent publication US8828941 (KUNOVUS, dated 2014).
# B1: active domain of GDF-6 fused to a FLAG tag (SEQ ID NO: 25), expressed in CHO cells (ligand)
# chain: MDYKDDDDKENLYFQGTAFASRHGKRHGKKSRLRCSKKPLHVNFKELGWDDWIIAPLEYEAYHCEGVCDFPLRSHLEPTNHAIIQTLMNSMDPGSTPPSCCVPTKLTPISILYIDAGNNVVYKQYEDMVVESCGCR
# notes: Non-reducing PAGE indicates a homodimer; also called active fragment of GDF-6; active fragment
# Target: the molecule itself
# Assay: non-reducing PAGE of protein from CHO cells
# Description: Concentrated supernatants from one well of a 6-well plate were separated using polyaclylamide gel electrophoresis (PAGE) under […] conditions. Proteins were transferred to nitrocellulose membranes and detected with antisera specific for GDF-6 or for the FLAG tag, secondary antibodies and detection system.
protein,measurement,value
B1,binding result,binds
